Measurements published in patent publication US20250145694A1 (GUANGDONG FEIPENG BIOLOGICAL, published 2025).
Positions count from the first letter of the chain named.

B1: Mutation 1-1 (antibody)
heavy: EVQMVESGGGLLKPGGSLKLSCAASGFTFSNYAMSWVRQTPEKRLEWVATISSGGSYSFYPDSVKGRFTISRDNAKNTLYLQMLSLRSEDTAMYYCARRDNYYGSSFMDYWGQGSSVTVSSAKTTPPSVYPLAPGSAAQTNSMVTLGCLVKGYFPEPVTVTWNSGSLSSGVHTFPAVLQSDLYTLSSSVTVPSSTWPSQTVTCNVAHPASSTKVDKKIVPRDCGCKPCICTVPEVSSVFIFPPKPKDVLTITLTPKVTCVVVDISKDDPEVQFSWFVDDVEVHTAQTKPREEQFNSTFRSVSELPIMHQDWLNGKEFKCRVNSAAFPAPIEKTISKTKGRPKAPQVYTIPPPKEQMAKDKVSLTCMITNFFPEDITVEWQWNGQPAENYKNTQPIMDTDGSYFVYSKLNVQKSNWEAGNTFTCSVLHEGLHNHHTEKSLSHSPG
light: DIQMTQTSSSLSASLGDRVTISCRASQEITNYLNWYQQKPDGTIKLLIYYTSRIHSGVSSRFSGSGSGTDYSLTISNLEQEDIATYFCQQGHTLPLTFDTGTKLELKRADAAPTVSIFPPSSEQLTSGGASVVCFLNNFYPKDINVKWKIDGSERQNGVLNSWTDQDSKDSTYSMSSTLTLTKDEYERHNSYTCEATHKTSTSPIVKSFNRNEC
notes: assembled FR/CDR/constant
B2: Mutation 1-5 (antibody)
heavy: B1 heavy with Y103F
light: B1 light
notes: assembled FR/CDR/constant
B3: Mutation 1-27 (antibody)
heavy: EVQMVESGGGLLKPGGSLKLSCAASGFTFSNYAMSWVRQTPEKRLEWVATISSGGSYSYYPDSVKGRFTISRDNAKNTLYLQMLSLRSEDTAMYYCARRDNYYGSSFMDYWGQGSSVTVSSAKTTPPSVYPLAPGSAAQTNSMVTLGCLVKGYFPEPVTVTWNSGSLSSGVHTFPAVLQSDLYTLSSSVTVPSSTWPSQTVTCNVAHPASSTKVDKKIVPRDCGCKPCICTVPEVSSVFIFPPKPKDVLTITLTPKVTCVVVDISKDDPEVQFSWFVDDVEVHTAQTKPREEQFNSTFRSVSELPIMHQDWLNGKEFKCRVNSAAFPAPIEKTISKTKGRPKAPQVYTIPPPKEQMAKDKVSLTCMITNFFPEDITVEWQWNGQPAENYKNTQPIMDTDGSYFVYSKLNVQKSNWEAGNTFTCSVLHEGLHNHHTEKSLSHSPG
light: B1 light with E28D, I54L, H92N, L94I
notes: assembled FR/CDR/constant
B4: Mutation 1-23 (antibody)
heavy: B1 heavy with F59Y, Y103P, S106T
light: B1 light with L94I
notes: assembled FR/CDR/constant
B5: Mutation 1-10 (antibody)
heavy: B1 heavy with F29Y
light: B1 light with E28D
notes: assembled FR/CDR/constant
B6: Mutation 1-28 (antibody)
heavy: B1 heavy with F29Y, F59Y, Y103P, S106T
light: B1 light with E28D, I54L
notes: assembled FR/CDR/constant
B7: Mutation 1-2 (antibody)
heavy: B1 heavy with F29Y, Y103P, S106T
light: B1 light with H92N, L94I
notes: assembled FR/CDR/constant
B8: Mutation 1-14 (antibody)
heavy: B1 heavy with F29Y, Y103F, S106T
light: B1 light with E28D, I54L, L94I
notes: assembled FR/CDR/constant
B9: Mutation 1-30 (antibody)
heavy: B1 heavy with F29Y, Y103F
light: B1 light with I54L, L94I
notes: assembled FR/CDR/constant
B10: Mutation 1-15 (antibody)
heavy: B1 heavy with F59Y, Y103F
light: B1 light with H92N
notes: assembled FR/CDR/constant
B11: Mutation 1-31 (antibody)
heavy: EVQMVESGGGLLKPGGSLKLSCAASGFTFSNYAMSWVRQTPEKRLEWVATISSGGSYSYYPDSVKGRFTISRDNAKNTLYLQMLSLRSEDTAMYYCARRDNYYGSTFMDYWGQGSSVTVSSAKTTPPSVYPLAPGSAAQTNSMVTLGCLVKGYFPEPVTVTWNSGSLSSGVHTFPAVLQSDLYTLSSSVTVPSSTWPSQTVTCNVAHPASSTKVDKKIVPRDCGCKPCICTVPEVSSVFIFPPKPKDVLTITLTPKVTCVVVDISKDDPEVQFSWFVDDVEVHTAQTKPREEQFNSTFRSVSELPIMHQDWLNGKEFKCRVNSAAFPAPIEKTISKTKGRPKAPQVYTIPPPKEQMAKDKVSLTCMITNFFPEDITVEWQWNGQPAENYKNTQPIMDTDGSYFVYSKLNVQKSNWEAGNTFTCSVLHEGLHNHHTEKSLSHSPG
light: B1 light with E28D, H92N
notes: assembled FR/CDR/constant
B12: Mutation 1-4 (antibody)
heavy: B1 heavy with F29Y, F59Y, Y103F, S106T
light: B1 light with H92N
notes: assembled FR/CDR/constant; Same printed sites as Mutation 1-40
B13: Mutation 1-24 (antibody)
heavy: B1 heavy with F29Y, F59Y, Y103F, S106T
light: B1 light with L94I
notes: assembled FR/CDR/constant
B14: Mutation 1-22 (antibody)
heavy: B1 heavy with F29Y
light: B1 light with E28D, L94I
notes: assembled FR/CDR/constant
B15: Mutation 1-7 (antibody)
heavy: B1 heavy with F59Y, Y103F, S106T
light: B1 light with L94I
notes: assembled FR/CDR/constant
B16: Mutation 1-13 (antibody)
heavy: B1 heavy with Y103P
light: B1 light with H92N, L94I
notes: assembled FR/CDR/constant
B17: Mutation 1-12 (antibody)
heavy: B1 heavy with F29Y, F59Y, Y103P, S106T
light: B1 light with I54L
notes: assembled FR/CDR/constant
B18: Mutation 1-26 (antibody)
heavy: B1 heavy with F29Y, S106T
light: B1 light
notes: assembled FR/CDR/constant
B19: Mutation 1-17 (antibody)
heavy: B1 heavy
light: B1 light with E28D, I54L, L94I
notes: assembled FR/CDR/constant
B20: Mutation 1-18 (antibody)
heavy: B1 heavy with F29Y, Y103P
light: B1 light with H92N
notes: assembled FR/CDR/constant
B21: Mutation 1-20 (antibody)
heavy: B1 heavy with F29Y, F59Y, Y103F
light: B1 light with E28D, I54L, H92N
notes: assembled FR/CDR/constant
B22: Mutation 1-11 (antibody)
heavy: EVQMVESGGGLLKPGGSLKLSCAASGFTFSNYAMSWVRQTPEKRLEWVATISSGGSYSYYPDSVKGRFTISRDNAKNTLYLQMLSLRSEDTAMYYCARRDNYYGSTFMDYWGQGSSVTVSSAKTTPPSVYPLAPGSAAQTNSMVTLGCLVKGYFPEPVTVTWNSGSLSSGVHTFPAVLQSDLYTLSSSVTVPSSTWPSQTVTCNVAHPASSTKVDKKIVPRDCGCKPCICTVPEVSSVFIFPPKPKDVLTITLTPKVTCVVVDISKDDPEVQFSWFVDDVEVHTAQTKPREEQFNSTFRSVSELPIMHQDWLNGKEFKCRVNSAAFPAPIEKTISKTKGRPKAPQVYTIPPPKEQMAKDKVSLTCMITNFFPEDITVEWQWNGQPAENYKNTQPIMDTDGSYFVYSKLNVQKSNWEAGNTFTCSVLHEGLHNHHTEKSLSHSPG
light: B1 light with E28D, I54L, H92N, L94I
notes: assembled FR/CDR/constant
B23: Mutation 1-29 (antibody)
heavy: B1 heavy with Y103F
light: B1 light with H92N, L94I
notes: assembled FR/CDR/constant
B24: Mutation 1-21 (antibody)
heavy: B1 heavy with S106T
light: B1 light with E28D
notes: assembled FR/CDR/constant
B25: Mutation 1-8 (antibody)
heavy: B1 heavy with F29Y, F59Y, Y103F
light: B1 light with L94I
notes: assembled FR/CDR/constant
B26: Mutation 1-25 (antibody)
heavy: B1 heavy with Y103F
light: B1 light with E28D, I54L, H92N
notes: assembled FR/CDR/constant
B27: Mutation 1-3 (antibody)
heavy: B1 heavy with F59Y, Y103P
light: B1 light with E28D, I54L
notes: assembled FR/CDR/constant
B28: Mutation 1-9 (antibody)
heavy: B1 heavy with S106T
light: B1 light with E28D, I54L, H92N
notes: assembled FR/CDR/constant
B29: Mutation 1-6 (antibody)
heavy: B1 heavy with F29Y
light: B1 light with E28D, I54L, H92N, L94I
notes: assembled FR/CDR/constant
B30: Mutation 1-19 (antibody)
heavy: B1 heavy with F59Y, Y103F, S106T
light: B1 light with I54L
notes: assembled FR/CDR/constant

What follows are binders tested against T1, CTNI quality control recombinant antigen (human, UniProt P19429 1-210, limits assumed) (assay: BLI, antibody on AMC sensor, cTnI in solution).
T1 construct: Recombinant antigen produced by the applicant; also called CTNI quality control recombinant protein (antigen produced by the company); cardiac troponin I
T1 sequence (P19429 whole entry): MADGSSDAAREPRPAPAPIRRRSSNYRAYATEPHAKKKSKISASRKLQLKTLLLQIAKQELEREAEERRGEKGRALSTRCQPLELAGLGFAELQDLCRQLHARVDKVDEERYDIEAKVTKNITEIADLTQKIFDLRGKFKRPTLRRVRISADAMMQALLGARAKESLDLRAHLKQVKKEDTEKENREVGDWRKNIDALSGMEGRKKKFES
Description: With an AMC sensor, the purified antibody was diluted to 10 μg/ml with PBST, and CTNI quality control recombinant protein (antigen produced by the company) was gradient diluted with PBST to 769.2 nmol/ml, 384.6 nmol/ml, 192.3 nmol/ml, 96.2 nmol/ml, 48.1 nmol/ml, 24 nmol/ml, 12 nmol/ml, and 0 nmol/ml.

Row | Kd | koff | kon | Binder
1 | 3.47 nM | 0.000124 s⁻¹ | 35800 M⁻¹ s⁻¹ | B1
2 | 0.83 nM | 0.000807 s⁻¹ | 972000 M⁻¹ s⁻¹ | B2
3 | 6.3 nM | 0.000501 s⁻¹ | 79600 M⁻¹ s⁻¹ | B3
4 | 4.31 nM | 0.000336 s⁻¹ | 77900 M⁻¹ s⁻¹ | B4
5 | 5.05 nM | 0.000346 s⁻¹ | 68500 M⁻¹ s⁻¹ | B5
6 | 3.68 nM | 4.31e-05 s⁻¹ | 11700 M⁻¹ s⁻¹ | B6
7 | 2.43 nM | 0.000129 s⁻¹ | 53200 M⁻¹ s⁻¹ | B7
8 | 7.76 nM | 0.000498 s⁻¹ | 64200 M⁻¹ s⁻¹ | B8
9 | 5.76 nM | 0.000163 s⁻¹ | 28300 M⁻¹ s⁻¹ | B9
10 | 3.8 nM | 0.000145 s⁻¹ | 38100 M⁻¹ s⁻¹ | B10
11 | 8.73 nM | 0.000744 s⁻¹ | 85200 M⁻¹ s⁻¹ | B11
12 | 7.1 nM | 0.00053 s⁻¹ | 74600 M⁻¹ s⁻¹ | B12
13 | 5.37 nM | 0.000248 s⁻¹ | 46100 M⁻¹ s⁻¹ | B13
14 | 9.07 nM | 0.000312 s⁻¹ | 34400 M⁻¹ s⁻¹ | B14
15 | 4.71 nM | 0.000186 s⁻¹ | 39400 M⁻¹ s⁻¹ | B15
16 | 4.12 nM | 0.000354 s⁻¹ | 86000 M⁻¹ s⁻¹ | B16
17 | 1.52 nM | 0.000135 s⁻¹ | 88600 M⁻¹ s⁻¹ | B17
18 | 1.38 nM | 3.48e-05 s⁻¹ | 25200 M⁻¹ s⁻¹ | B18
19 | 9.22 nM | 0.000336 s⁻¹ | 36400 M⁻¹ s⁻¹ | B19
20 | 4.4 nM | 0.000253 s⁻¹ | 57500 M⁻¹ s⁻¹ | B20
21 | 2.87 nM | 0.000172 s⁻¹ | 59800 M⁻¹ s⁻¹ | B21
22 | 4.4 nM | 4.75e-05 s⁻¹ | 10800 M⁻¹ s⁻¹ | B22
23 | 7.59 nM | 0.000197 s⁻¹ | 26000 M⁻¹ s⁻¹ | B23
24 | 9.55 nM | 0.000632 s⁻¹ | 66200 M⁻¹ s⁻¹ | B24
25 | 6.81 nM | 0.000667 s⁻¹ | 98000 M⁻¹ s⁻¹ | B25
26 | 5.36 nM | 0.000364 s⁻¹ | 67900 M⁻¹ s⁻¹ | B26
27 | 4.58 nM | 5.73e-05 s⁻¹ | 12500 M⁻¹ s⁻¹ | B27
28 | 8.6 nM | 0.000184 s⁻¹ | 21400 M⁻¹ s⁻¹ | B28
29 | 9.81 nM | 0.000275 s⁻¹ | 28000 M⁻¹ s⁻¹ | B29
30 | 8.19 nM | 0.000772 s⁻¹ | 94300 M⁻¹ s⁻¹ | B30
